{"source": "paper PMC9456514", "about": "“Three-Dimensional Envelope and Subunit Interactions of the Plastid-Encoded RNA Polymerase from Sinapis alba” (International Journal of Molecular Sciences, 2022)", "binders": {"B1": {"name": "α subunit of the plastid-encoded RNA polymerase (SaRpoA) (natural protein, UniProt Q9XQN8 1-327, looked up)", "chain": "MVREKVKVSTRTLQWKCVESRRDSKRLYYGRFILSPLMKGQADTIGIAMARALLGEIEGTCITRAKSENIPHDYSNIVGIQESVHEILMNLNEIVLKSNLYGTRNPFICVQGPGYITARDIILPPSVEIVDNTQHIATLTEPINLCIGLKIERNRGYSLKMSNNFEDRSYPIDAVFMPVQNANHSIHSYGNGNEKQEILFIEIWTNGSLTPKEALYEASRNLINLFIPFLHVEEETFYLENNQHQVTLPVFPFHNKLVNLRQKKKELAFQYIFIDQLELPPRIYNCLKKSNIHTLLDLLNNSQEDLIKMEHFHIEDVKKLLDILEKK", "notes": "RNA polymerase α subunit, product of the plastid gene rpoA, Sinapis alba"}}, "biological_target": "T1, β subunit of the plastid-encoded RNA polymerase (SaRpoB) (Sinapis alba (endogenous in cotyledon …, UniProt P46818 1-1078))", "T1 construct": "RNA polymerase β subunit, product of the plastid gene rpoB, Sinapis alba", "T1 sequence (looked up)": "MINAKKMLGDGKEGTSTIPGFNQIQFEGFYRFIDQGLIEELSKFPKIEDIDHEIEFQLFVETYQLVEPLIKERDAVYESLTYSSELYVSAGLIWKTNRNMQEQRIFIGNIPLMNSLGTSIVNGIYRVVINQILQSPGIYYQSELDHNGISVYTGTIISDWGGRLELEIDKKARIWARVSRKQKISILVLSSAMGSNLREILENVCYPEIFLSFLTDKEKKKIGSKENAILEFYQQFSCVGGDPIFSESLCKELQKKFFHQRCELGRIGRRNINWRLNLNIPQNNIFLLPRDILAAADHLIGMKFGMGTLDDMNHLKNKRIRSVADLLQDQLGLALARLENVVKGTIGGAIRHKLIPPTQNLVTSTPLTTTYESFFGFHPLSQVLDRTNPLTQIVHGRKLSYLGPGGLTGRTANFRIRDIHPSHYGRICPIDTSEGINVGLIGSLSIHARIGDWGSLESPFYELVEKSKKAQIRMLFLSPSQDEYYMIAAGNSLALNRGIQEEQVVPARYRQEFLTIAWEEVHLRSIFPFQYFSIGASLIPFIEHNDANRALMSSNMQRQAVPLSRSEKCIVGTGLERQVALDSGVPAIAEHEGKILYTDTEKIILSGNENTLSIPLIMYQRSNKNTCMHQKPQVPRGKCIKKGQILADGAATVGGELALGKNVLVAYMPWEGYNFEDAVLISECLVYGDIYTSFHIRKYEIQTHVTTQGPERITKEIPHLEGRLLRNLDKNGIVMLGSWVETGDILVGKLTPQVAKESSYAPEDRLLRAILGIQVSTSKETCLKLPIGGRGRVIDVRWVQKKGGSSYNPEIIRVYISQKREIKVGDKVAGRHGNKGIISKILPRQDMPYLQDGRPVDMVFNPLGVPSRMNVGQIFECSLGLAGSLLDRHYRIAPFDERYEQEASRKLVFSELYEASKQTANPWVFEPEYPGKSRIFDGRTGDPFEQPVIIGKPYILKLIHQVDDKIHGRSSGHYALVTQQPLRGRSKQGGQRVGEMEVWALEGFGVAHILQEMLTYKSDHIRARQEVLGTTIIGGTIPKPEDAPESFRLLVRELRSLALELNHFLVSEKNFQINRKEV", "experiment": "co-purification of the native complex with mass spectrometry; chloroplast lysate of S. alba cotyledons; heparin resin (elution 1.2 M (NH4)2SO4), 35-15% glycerol gradient, Q-Sepharose (0-1 M NaCl), 100-kDa cutoff concentration; three independent preparations; label-free MS, iBAQ values", "conditions": "partners not purified", "data": [{"binder": "B1", "values": [{"measurement": "stoichiometry N", "value": "~2"}]}]}
